Test system: MS2 coat protein
Experiment: apparent KD of MS2 coat protein; designed switch direction (-1 OFF switch, 1 ON switch): -1; higher = weaker reporter binding
Method in brief: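 Designed RNA switches were transcribed on Illumina chips by stalled E. coli RNA polymerase and titrated with SNAP-549-labelled MS2 coat protein from 0.7 or 1.5 nM, doubling to 3 µM. Step length ran from 0.8–1.5 h at the lowest concentration to 10–20 min at the highest. The apparent KD is the median over clusters for each design, from curve-fitted normalised cluster fluorescence.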

[1] = input ligand: microRNA oligo, concentration not stated
[2] = Eterna round: R95, input ligand: FMN 200 uM
[3] = Eterna round: R95, input ligand: microRNA oligo, concentration not stated
[4] = Eterna round: R95, input ligand: none

| Sequence | apparent KD of MS2 coat protein (input ligand: FMN 200 uM) | apparent KD of MS2 coat protein [1] | apparent KD of MS2 coat protein (input ligand: none) | apparent KD of MS2 coat protein [2] | apparent KD of MS2 coat protein [3] | apparent KD of MS2 coat protein [4] |
| --- | --- | --- | --- | --- | --- | --- |
| UGACGAGUAGGAUAUUGGACUUGCGACAUGAGGAUCACCCAUGUGACGUCAACGUGGCACCAAGAAGGGCUACGUC [Gelareusdi] (Eterna round: R96, puzzle: Exclusion 5) | 53.4 nM | 49.3 nM | 63.3 nM | – | – | – |
| CAAAACCUAGGAUAUACAUGAGGAUCACCCAUGUCGGGCCUACGCGAAACGCGCCUCAGUAGAAGGAGGGAAAC [Riri] (puzzle: Exclusion 3) | – | – | – | 180 nM | 46.8 nM | 70.5 nM |
| GCAGGAUAAGUCAGGAUAUACCUAUGGAUACAUAGGUAGAAGGGACAUGAGGAUCACCCAUGUUACUCGCCUGC [Fiskers BMX 4 - 74] (puzzle: Brourd's mod of Exclusion 4) | – | – | – | – | 13.6 nM | – |
| CAUGGAUGUGAGCCGCAUUACAUGAGGAUCACCCAUGUCAACAAGCUUUUUGCUUGUCUUACGCGGCGGCACCAGAA [Getelexe] (puzzle: Sensor v3, turn-off variant 1) | – | – | – | 14.3 nM | 8.03 nM | 10.8 nM |
| CCUCCCUGAGGAUAUCCACCCUCAUACAUGAGGAUCACCCAUGUUCAUCCGUGGGUACCCGGAGAAGGCAGCUCUC [Megrez-c] (Eterna round: R97, puzzle: Exclusion 5) | 80.8 nM | – | 86.7 nM | – | – | – |
| UGAGUGCUGCGAGGAUAUACAUGAGGAUCACCCAUGUUUUCCUGUGAGGCAUAGCCUCACAGGAUGUAGAAGGCGCAGUACUCU [Mat - Exclusion NG 2 - Mod of JL - D28] (Eterna round: R96, puzzle: Exclusion NG 2) | 10.6 nM | 8.03 nM | 13.8 nM | – | – | – |
| AAACAAUCCCGAGGAUAUCGGCUAUUAGCAUGCCGAGAAGGCGGCGCGCAUCGACAUGAGGAUCACCCAUGUGUCCGCUCGGUU [Eternabot solution 31] (Eterna round: R96, puzzle: Exclusion NG 1) | 20.8 nM | 13.6 nM | 21.6 nM | – | – | – |
| GUAGAGUAAGGAUAUAGAGAAUAGGAUAGAAUGGUUAGAAUCUAGAAGGUACAUGAGGAUCACCCAUGUAAUGU [Excluse me!!!! 7 - Jieux - Exclusion 4] (puzzle: Exclusion 4) | – | – | – | – | 18.7 nM | – |
| GCCAAUGACUGAGGAUAUGCUUAUAGACAUGAGGAUCACCCAUGUAAAUGGGACAUGUCAAACCAGCAGAAGGCAGGACCUGGC [Arused] (Eterna round: R96, puzzle: Exclusion NG 2) | 69 nM | 585 nM | 514 nM | – | – | – |
| UACAUGAGGAUCACCCAUGUUUUGUCGUGUAUGGUAUUUAUCUAGGAUAUCAAUCAAUUUAUUUAUGAGAAGGAGAAUAUUAAU [JMF's solution 49] (Eterna round: R96, puzzle: Exclusion NG 3) | 37.8 nM | 26 nM | 33.8 nM | – | – | – |
| UCAUGUUAGCAGGAUAUGCUAUUUAUUUUUUAUGCAGAAGGGCUUACAUGAGGAUCACCCAUGUGUUAGGUUUU [JR_E6_Sub073] (puzzle: Exclusion 6) | – | – | – | – | 29.7 nM | – |
| GAUGAGGUAGGAUAUACGAUAAUAUAGGGUAGAUAUAUAACACAUGAGGAUCACCCAUGUAGAAGGACCAGUAC [Mat - Exclusion 2 - Mod of my Tesla design - D69] (puzzle: Exclusion 2) | – | – | – | – | 36.4 nM | – |
| AAGAAGCGAGGAUAUACAGGCGGCGACAUGAGGAUCACCCAUGUGGUGGCCCACGCCGUGGUAGAAGGCGUUAAAG [Ordiceinri] (Eterna round: R97, puzzle: Exclusion 5) | 228 nM | – | 245 nM | – | – | – |
| UUUUAGAGAGGAUAUAUGAUGUGAAACAUGAGGAUCACCCAUGUAAUAUUAUGGAUGUAAAUAGAAGGCUCAUUUA [JL-ex5-3.05] (puzzle: Exclusion 5) | – | – | – | 38.8 nM | 63.3 nM | 69.1 nM |
| UAAAUAAAUGUAGGAUAUCUGCACGUGUAGUGCAGAGAAGGACAUGAGGAUCACCCAUGUAUAGUAGCUUCGGCUACAAAUAAU [ENG1-C3] (Eterna round: R96, puzzle: Exclusion NG 1) | 110 nM | 69.3 nM | 88.8 nM | – | – | – |
| AGCCUACAUGAGGAUCACCCAUGUCAGGAUAUCUCGCGACGUGUCGGGAACACGUUGCAGAGAAGGGACUCGGG [Labezadi] (puzzle: Exclusion 1) | – | – | – | – | 51.8 nM | – |
| AGCUGUGGCCAAGGAUAUCCAGCCUUAAAUACCGACGUAUAGUCGGACAUGAGGAUCACCCAUGUGGAGAAGGUGGUCUCAGCA [Eli eng2 - 040] (Eterna round: R96, puzzle: Exclusion NG 2) | 109 nM | 45 nM | 56.8 nM | – | – | – |
| UUACUAUGUCGCUUAAUAGCUUUUUGCUCGUCUUAUAUUACAUGAGGAUCACCCAUGUAGAUCAUGUGGCGUGACCU [JL ViennaUCT Maridi mod 6] (puzzle: Sensor v3, turn-off variant 2) | – | – | – | 247 nM | 36 nM | 237 nM |
| ACUAGAUGAGGAUAUGCAUGUUUUCGUGUUCUUCUAGAUUAACAUGAGGAUCACCCAUGUAGAAGGCGUCAUAU [Exclusion 2 - 29] (puzzle: Exclusion 2) | – | – | – | – | 45 nM | – |
| CACUAACAUGAGGAUCACCCAUGUUAGGAUAUGCAGUUCGGCCAACGGGCCCGAACAUGUAGAAGGAACAGGGU [Eternabot (L2) Solution 44] (Eterna round: R97, puzzle: Exclusion 1) | 81.3 nM | – | 25.8 nM | – | – | – |
| UAUUAGCAAGUAAGAUCCCACAUGAGGAUCACCCAUGUGCUCGUCUUAUAAGGUACUGUGACGAAAGUCACGGUACC [Sensor 3, v1 - 88] (puzzle: Sensor v3, turn-off variant 1) | – | – | – | 12.6 nM | 1040 nM | 16.5 nM |
| GACGAGGGAGGAUAUGCACGAGGGAUAUCUGACAUGCCUAUACAUGAGGAUCACCCAUGUAGAAGGCCCAGAUA [Veorleerma] (puzzle: Exclusion 2) | – | – | – | – | 11.9 nM | – |
| GAAAAGGUAGGAUAUACGAAAAAAAAGGGUAGAAAUAAAACACAUGAGGAUCACCCAUGUAGAAGGACCAAAAG [salish99_ex2_r3_076] (puzzle: Exclusion 2) | – | – | – | 74.5 nM | 20.9 nM | 15.5 nM |
| CAGGACAGAGGAUAUACAUAGAUACAGAUUCAUGUAGAACUACAUGAGGAUCACCCAUGUAGAAGGCUGUCCUG [Fiskers Ex 2 - 3] (Eterna round: R96, puzzle: Exclusion 2) | 370 nM | 25 nM | 33.5 nM | – | – | – |
| CAGAAACAUGAGGAUCACCCAUGUGAGGAUAUGAAAAAGAAAAGAAAAGAAAGAAGAAUCAGAAGGCACAAAGU [salish99-ex1_r3_086] (puzzle: Exclusion 1) | – | – | – | 36.8 nM | 32.4 nM | 35.7 nM |
| UCAUACGGUGAGGAUAUCUCCACUAAAGUGUGAAGAGAAGGCGCUACAUGAGGAUCACCCAUGUUUAUGGGCAG [Ex-6 Malc#14] (puzzle: Exclusion 6) | – | – | – | 27 nM | 56.5 nM | 116 nM |
